The text below walks through data of a protein production outcome set (Wang et al. 2014).
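Also: failed if final PepcDB status was selected cloned or expressed and not failed if soluble or beyond.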

A short description of the data set: label from the status in PepcDB records.
“MADMTKQAFMRLSNPKFIMLFLILWVSLLLSSNHTLSQLADYIFFTFLGTLGAIFANSTGAGGGVVFIPMFTQLNFTEQQSIATSFAIQCFGMTAGAVTWWHHYRTEKTDLRLWQGFKRIICVTTIASIIGLNAVFFYQVNSPATLHTSFSWFSLLLGFFIVLTIYLLQPHRERSQLYYVDYIFLILIGLFGGAVTAWLSVGVGELLVIYLLLRHFDISMAVAAAVIVSAISVWTAIAQVNSDVYWQVVLFAGPGAVLGGIFAKTLVTHLSAIKLKLFFACWLLLSGVVGLI”: the protein production result is listed as “failed”.
For “MQRYDAVISGAGPAGCSAALSLAQKGRRVLLIDKARFPREKICGDGVTAASTELLEEMGVLELLRQRPGSLTEFRGATFVSPGGTVVQGRILRNGHLSGSSYVIPRMVLDDSLVSRVKEHSSITFLDKTTVTGLVMDGDRARGVATSAGEFCGRIIIAADGAYSPIAKQLDLWNRDKRQQGFAMRAWFSGVEGLGDSIELCYDKAMLPGYGWIFPAGEQRANVGVFLLPRFADQRSTKRLFKSFVKENAFAAARLKNAVMEPGSLKSWPLPFGSFAGRRGRGNVLLAGDAGSFIDPLTGEGIYYALKTGRYAAEAVANALERNDESAALTRYEQLWRGEFSGRVYFPGYAFQHFMNNSWFVDTFMRYTAKKQHRADLLADVVAHNRKRRELFKLLNPFYLEHHHHHH”, the protein production result is “failed”.
Turning to “AELQQTEKASAKKQDKAEIRNVIVMIGDGMGTPYIRAYRSMKNNGDTPNNPKLTEFDRNLTGMMMTHPDDPDYNITDSAAAGTALATGVKTYNNAIGVDKNGKKVKSVLEEAKQQGKSTGLVATSEINHATPAAYGAHNESRKNMDQIANSYMDDKIKGKHKIDVLLGGGKSYFNRKNRNLTKEFKQAGYSYVTTKQALKKNKDQQVLGLFADGGLAKALDRDSKTPSLKDMTVSAIDRLNQNKKGFFLMVEGSQIDWAAHDNDTVGAMSEVKDFEQAYKAAIEFAKKDKHTLVIATADHTTGGFTIGANGEKNWHAEPILSAKKTPEFMAKKISEGKPVKDVLARYANLKVTSEEIKSVEAAAQADKSKGASKAIIKIFNTRSNSGWTSTDHTGEEVPVYAYGPGKEKFRGLINNTDQANIIFKILKTGK”, the protein production result is listed as “failed”.
With “NGDPQWLVQAARTAVLRTYEYGRALLKGLFTDSPFNIDIFDTQLRFVGLNIAERRAGVFQGTEYSGHTMREMAPPGLLDVDALEARQRRVLETGKALIDTEVVGHPVANSPREYVWSESILPLRDPSGRVIALGHVVSDV”, the protein production entry was “failed”.
As for “MEESATVEVVVGRVGRAHGLRGDVVVEVRTDEPDARFGVGATVQIEGSRRDLTVVRSRWAKGCLIVAFDEVKDRQGAEELRGSVLVVDVEPNDDPDDPDEFWDRRLRGLTVVDESGKSRGAVKDVLHMPAQDVLVIDVSGEEHLVPFVHQLVPTVDVASGRIVVSGIPGLLDSNAEEAR”, the protein production entry was “failed”.
Then “MNSYKYLKYSQYAKQALIFINFLAVTYYVFVYLFASKYIVAKNLSHVLLDKLDIVPIAPENIFFTTLFFFAIFLIVMFYRESILNKKEEINDWLIVAEIVLMILTFISLQFSYNGLFLLVFADIFYSYANFYNVKEQKYWLLFIILGFSMLLISNFDLLSLVMRLPSLDVYISFFPSGSRLIVMFIKNFLYSLNIIVFLISLVAYIMYSVAENHKIEEELRMAARANIELNDYVSLAEKIAEDKERKRIAREIHDTLGHALTGISAGIDAVTVLVDFDPNHAKSQLKNVSDVVREGIQDVRRSLEKMRPGALEKGSLKEALLKMIADYEKLSKLQVSLHYDWDNIDLDITKEDIIFRVIQETITNSLRHGHARHVSIDMLNEDFYIIKIKDDGIGCEDFKLGYGLTQMQERLAIIGGYADFESDDGFQTMVRIPKKKGEE”, with “failed”; and “MASEFDLIQRYFRRAHPSAVLGVGDDAALIQPSPGMELAVSADMLVANTHFYPNIDPWLIGWKSLAVNISDMAAMGAQPRWATLTIALPEADEDWISKFAAGFFACAAQFDIALIGGDTTRGPLTISVQIMGETPPGASLLRSTARADDDIWVSGPLGDAALALAAIQGRYPLSDTELAACGKALHQPQPRVVLGQALRGLAHSALDISDGLLADLGHILEHSQVGAEVWLKAIPKSEVVSAHSQEVAIQKMILSGGDDYELCFTASTQHRQQIADIGRQLSLDMAVIGRITDTQQLVIHGLDDAPLTLKEHGFDHFA”, with “not failed”; and “MQEISAYTLIKEKLQAIPNLRHKGILFEKISKQFLQEHDSANEYESIDLWYDWKLRGNERDKGIDIVITTFKQRIHRCAMQIPSK”, with “failed”.
In the case of “MIPLHRLCRALALLMGFGPTLSALAASAPEGLPLLGTGEGLEVRGCETLVLRGGQVVRLAEIIGPEAEGAARAQAALGALVVGHSLRLYGESPLADRYGRLHAHGVTEEGRWVQGALVEAGLARVVIREGESALSGALLALEERARRAGRGLWPPASAASPPPGALAATGDGFQVVEGRIVSAARAGRRIYLNFGADWRSDFTVSLSEAMLARLLATGRDPLAWAGRRVRVRGWVTRRNGPLLDLPHPMALEGPLDGPPFLSPKENLDLEYPGN”, the protein production result is “failed”.
For the sequence “MIGKVLEGRYEIVSELGGGGMARVYRGQDRLLNRNVTIKILREQYASDKEFLARFQREAQAVASLSHPNVVSIYDVGQEDDLHYLIMEYVEGRSLKDLISERAPLPPLEAIDISLQICDALEHAHENGVIHRDIKPHNILITRNGRVKVTDFGIAQAVSEVTMSQSGTMIGSVHYLAPEQARGGVIGATADIYSLGIVLYEMLTGDLPFHGETPVAVALKHLQENPRPVRELNPNVPPALERVVMRTLEKDPARRYPSAAALRSDLLAVRNALADATFATQVLPAIETPDPPSTLPKPRRRPRVWAWVLMALLFLGLAAAGLWAGFRYYLAVGETLVPSVVGLPEGQALEQLAAAGLRGQVIARQYDASVPAGQVMAQDPGPNQRVRRGRVVALTVSQGARLVRVPSVIGETERNARLILENANLKVAADTLKVYHPSIPAGSVVDQNPPANTQQPEGTEVRLIISKGPEPQFTTAPSVVGLSLAEAQQKLLEAKLKQGTLTYQRSDNQFPGYIIAQDPREGSNVLQGSAINLVVSQGPGPVQKQVGVTIDPAPDDKDHEVRIVVTDAKGTNEVLKKKQKMGQQIQATINYFGKGKLQVFRDGNVIYEQDLQ”, the protein production result is given as “failed”.
For the sequence “MHLWWRYHLATIIILFAMILTIYFLVPPLFYIEIIGVIFILFLWYIISPGILLRVIKSKKVENEDVLRKFEYALALVQMKKIKLHEINSSKPNAFVLGNFLSYNVIVTRGLLESLNDRELISVLLHELHHIKNRDIEIQLIYVLIVNTFYIYIANYNPLLGLSELVIGVVLLFPVHRLLEKNADIKACRTTNWIPLNLANALVKIGYLSRFLPHEIIRDYSEVDLTLAKETILRDDKKGFIFSTHPALSERLKYISKFIKTL”, the protein production result was “failed”.
Then “MNLSFKIFDISNTQRSKAKKVQGKKYEIFLNENEHSLITPKVSFKEILRYYYLYPKNAIPSFKLPFFKPDLSGFSTPHITWLGHSSLFISFKEYKILIDPIFNTHASPISFINKAFKNAPVYNINDFNEIFAVIITHSHFDHLDAKSVKALKDKAKFFITPLKVGNYLKSYGVSEKKIIELDWWSGIEFGDLKIMATPAQHSSSRGDGKNKTLWASFVMEFLSVDKRVFFSADGGYFTHFKKIGEYFGSFDLACLESGQFNIAWPYSHSFPEQILKEAKDLNAKAVMPIHWGRFLAGTHAWNEVVKFLYENLDLPLITPKMGEAYEVGAKFKQDFWWKEELEHHHHHH”, with “failed”; and “MEYTVHTPSFRYHDLPYQDCLNKVGTVTLQDYRDDLVALIESLNQPPLLLGHSLGFLVAQMAAKKIEIDGMIFM”, with “failed”; and “MLETVAGVTIGASCIILTIALTKKLGPEWAWINRKLIHLSIIPAALFFYYGIIPREIFSPAAALFGIAQLLAHVKNRELNWYQLKQNYGEVFFAFSASFITFVFPRDYASALLLVMAISDGVTGIIRHYYFKRNGFNVKLKKHWTGSLGYIITAIIIAVAFLDGNIIEKVGWAFILMLAEYQPWIDDNLAVPLVGSALYFLY”, with “failed”.
Under “MGQIGVEITGVITDISEIKTFKRRDGSLGKYKRITIADKSGTIRMTLWDDLAELDVKVGDVIKIERARARKWRNNLELSSTSETKIKKLENYEGELPLEHHHHHH” stands “not failed”.
For the sequence “KIMIAALDYDPGDGQMGGQGKGRLALRAGDVVMVYGPMDDQGFYYGELGGHRGLVPAHLLDHMSLHGH”, the protein production result is “not failed”.
